Tested on: MS2 coat protein
Experiment: apparent KD of MS2 coat protein; designed switch direction (-1 OFF switch, 1 ON switch): -1; higher = weaker reporter binding
In short: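 The reported apparent KD is a per-design median over clusters, from curve fits of normalised cluster fluorescence. Protein titrations used SNAP-549-labelled MS2 coat protein, doubled from 0.7 or 1.5 nM to 3 µM, in Tris-HCl pH 7.5 buffer with KCl, MgCl2, BSA, DTT, tRNA and Tween-20, with no input, 200 uM small-molecule ligand, or an oligonucleotide input. The RNA switches were transcribed on Illumina chips by stalled E. coli RNA polymerase.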

[1] = input ligand: microRNA oligo, concentration not stated
[2] = Eterna round: R95, input ligand: FMN 200 uM
[3] = Eterna round: R95, input ligand: microRNA oligo, concentration not stated
[4] = Eterna round: R95, input ligand: none

Sequence	apparent KD of MS2 coat protein [1]	apparent KD of MS2 coat protein (input ligand: FMN 200 uM)	apparent KD of MS2 coat protein (input ligand: none)	apparent KD of MS2 coat protein [2]	apparent KD of MS2 coat protein [3]	apparent KD of MS2 coat protein [4]
UUGUCGCAUGUAGGAUAUGUAUGUUAUUAUCAUACAGAAGGACAUGAGGAUCACCCAUGUGUAUUAUUAUUAUAUGUUACAUAU [MOD of Hoglahoo's a different Title] (Eterna round: R96, puzzle: Exclusion NG 1)	0.014 µM	–	–	–	–	–
CACCUGAACACAGGAUAUCAUACAUGAGGAUCACCCAUGUAAUAAAUGAGAAUUUCGAAUGUAAUUGAGAAGGGUGGAUAAGGC [Ostricism 90 - Jieux - Exclusion NG 2] (Eterna round: R96, puzzle: Exclusion NG 2)	0.0346 µM	0.0978 µM	0.0411 µM	–	–	–
AUGUGACAUGAGGAUCACCCAUGUCAGGAUAUUUCCAAAAUAAAAUAAAACCGCGUGGAAAGAAGGGACGUGGC [EX1 A.4] (Eterna round: R97, puzzle: Exclusion 1)	–	0.0274 µM	0.0219 µM	–	–	–
GACAGCGGAGGAUAUGCCGUAGAUUACAUGAGGAUCACCCAUGUGGGCUGUAAGUAAUAGGCAGAAGGCUGCCGUU [Eternabot (Original) Solution 33] (Eterna round: R97, puzzle: Exclusion 5)	–	0.144 µM	0.109 µM	–	–	–
CUUGUAAAUGUGAGGAUAUACUGUUAGUAAAGUUAGUAGAAGGUACAUGAGGAUCACCCAUGUUAAUUACUCUA [JR_BME4_Sub047] (puzzle: Brourd's mod of Exclusion 4)	–	–	–	0.0159 µM	0.0132 µM	0.0145 µM
UUUAUAAUAAGAUCAAUUAAUUAACAUGAGGAUCACCCAUGUGAGGAUAUCAGCUCGAUUAGAGCUGAGAAGGCACAAUAUAAG [ExNG3/17-B1] (Eterna round: R96, puzzle: Exclusion NG 3)	0.0363 µM	0.0793 µM	0.0433 µM	–	–	–
GCAAUUUCAAAGGAUAUACCUAAUUAACUAUCGGUAGAAGGUUGGACAUGAGGAUCACCCAUGUGCUCACACUU [Eternabot (L2) Solution 67] (Eterna round: R97, puzzle: Exclusion 6)	–	0.0159 µM	0.0156 µM	–	–	–
GAUCUGACAGGAUAUACAUGAGGAUCACCCAUGUGCGUGCUAGCGAAAGCUAGCGCAGGUAGAAGGGUCAGAUC [Ex3 dot plot directed v4] (puzzle: Exclusion 3)	–	–	–	0.0144 µM	0.0113 µM	0.0129 µM
GUGCAACAUGAGGAUCACCCAUGUGAGGAUAUGCGAAUUUCAUCAAAAGAUGAAAUUUGCAGAAGGCACAGCAC [Omei Ex1 A13] (Eterna round: R97, puzzle: Exclusion 1)	–	0.0205 µM	0.0159 µM	–	–	–
AUUGUUUGAUACCUCUAAUACAUGAGGAUCACCCAUGUUAUCGAGGAUAUGCAUUAGAGUGGUUAGCAGAAGGCGAAGUAAUUG [JR_ExcNG3_Sub030] (Eterna round: R96, puzzle: Exclusion NG 3)	0.0142 µM	0.0185 µM	0.0171 µM	–	–	–
UUAAUUAAUUAACGCAGCAAGAUCACAUGAGGAUCACCCAUGUAGGAUAUCAGCUCGUUUAGAGCUGAGAAGGACAUAGCUGCG [ExNG3/1-A2] (Eterna round: R96, puzzle: Exclusion NG 3)	0.0111 µM	0.0876 µM	0.018 µM	–	–	–
AAAUUAAGUGUGAGGAUAUGCUGGUCCAUAGAUCAGCAGAAGGCACAUGAGGAUCACCCAUGUAAUAUAUUUAA [Mat - Exclusion 4 - JL Mod - D51] (puzzle: Brourd's mod of Exclusion 4)	–	–	–	0.134 µM	0.0294 µM	0.023 µM
UUUUGGCAGGCUAUUAUUAACAUGAGGAUCACCCAUGUGCAUCCAAAAUUACUUUUAGAUCUUGCUCGUCUUAUAUA [JR_STOV1_Sub086] (Eterna round: R97, puzzle: Sensor, turn-off variant 1)	–	0.379 µM	0.684 µM	–	–	–
CAUGGGUGUGAGCCGCAUUACAUGAGGAUCACCCAUGUCAACAAGCUUUUUGCUUGUCUUACGCGGCGGCACCAAAA [Bimaus] (puzzle: Sensor v3, turn-off variant 1)	–	–	–	0.0174 µM	0.00965 µM	0.0149 µM
GAGGACUUAGGAUAUACAUGAGGAUCACCCAUGUCCCUAAGCAUGCGACAGCCCUCGAGUAGAAGGGAGGACCA [Eternabot (Original) Solution 3] (Eterna round: R97, puzzle: Exclusion 3)	–	0.0148 µM	0.0147 µM	–	–	–
GGUCAGAUGGUAGGAUAUCCAUAUCGAGUGACCCUUUCAUAACAUGAGGAUCACCCAUGUCGGUGGGAGAAGGGUCGUACGGCG [salish99_ExNG02_R04_020] (Eterna round: R96, puzzle: Exclusion NG 2)	0.0164 µM	0.0213 µM	0.0236 µM	–	–	–
ACUUAUAGAGGAUAUACAGUUUAUUACAUGAGGAUCACCCAUGUUCUUCAAUGUAUAUAAGUAGAAGGCUAAGGAA [EX-5 Malc#5] (puzzle: Exclusion 5)	–	–	–	0.132 µM	0.0252 µM	0.03 µM

Sequence	apparent KD of MS2 coat protein [1]	apparent KD of MS2 coat protein (input ligand: FMN 200 uM)	apparent KD of MS2 coat protein (input ligand: none)	apparent KD of MS2 coat protein [2]	apparent KD of MS2 coat protein [3]	apparent KD of MS2 coat protein [4]
AUUAGUAUCUAGGAUAUCUAGUACAUAGUAUCUAGAGAAGGAGAUACAUGAGGAUCACCCAUGUUCUGUGUUCU [Exclusion 6 - 1:d] (puzzle: Exclusion 6)	–	–	–	–	0.0203 µM	–
CAUACUGAAGUUAGGAUAUGCGGCCGAAUACGGGUGUAGAAGGGACAUGAGGAUCACCCAUGUAGAUAGUAAAG [EX-4 Malc #16] (puzzle: Brourd's mod of Exclusion 4)	–	–	–	0.0273 µM	0.0249 µM	0.0201 µM
ACUCUACAUGAGGAUCACCCAUGUGAGGAUAUCAAAGCCAGAGCGGAUCUCUGGUCCAUGAGAAGGUGCAUGGU [ElNandoxlusion 3 - Jieux - Exclusion 1] (Eterna round: R97, puzzle: Exclusion 1)	–	0.0734 µM	0.0223 µM	–	–	–
CCAAGCUUAUUCAUUAACAACAUGAGGAUCACCCAUGUGUAAGCAAUUAUGUUUGGGCUCUUUAGUGCUCGUCUUAU [Sensor-V1 #21] (Eterna round: R97, puzzle: Sensor, turn-off variant 1)	–	0.0137 µM	0.0139 µM	–	–	–
CGUAAGCUAGGAUAUGCUUUGGGAAAGCAUUCCUUCGAUAAACUUGAGGAUCACCCAAGUAGAAGGAGCUUACC [salish99_ex2_r4_009] (Eterna round: R97, puzzle: Exclusion 2)	–	0.0117 µM	0.0115 µM	–	–	–
CCAGCGUAUGUGAGGAUAUGCUGGUCCUUGGAUCAGCAGAAGGCACAUGAGGAUCACCCAUGUGGAAAAGUUGG [Mod of JL 23 - Jieux - Brourd's mod of Exclusion 4] (Eterna round: R97, puzzle: Brourd's mod of Exclusion 4)	–	0.164 µM	0.0273 µM	–	–	–
UGUACUAACACGAGAGUGUUAGUACUAUAAGCUUGUGUUACAUGAGGAUCACCCAUGUCCUCAUAAGCUCGUCUUGA [Mat - Sensor v3 - Turn-off var 2 - D94] (puzzle: Sensor v3, turn-off variant 2)	–	–	–	0.0404 µM	0.285 µM	0.034 µM
ACCUUACAUGAGGAUCACCCAUGUCAGGAUAUCUCGGGCGGCUGAGGACCAGCCACCCAGAGAAGGGACGAGGA [Qumaraanan] (puzzle: Exclusion 1)	–	–	–	0.015 µM	0.0119 µM	0.0157 µM
CUGCUCCGUGUAGGAUAUGCGUACAACCAAUAUGCAGAAGGACAUGAGGAUCACCCAUGUAUGUUAUUAUCACGUGAAGCGUCC [Design 21] (Eterna round: R96, puzzle: Exclusion NG 1)	0.016 µM	–	–	–	–	–
UCAAGUAUGUAGGAUAUGAUGUGAUUCUACAUAUCAGAAGGACGUACAUGAGGAUCACCCAUGUAACUUGCAUG [Exclusion 6 - B - 12:d] (puzzle: Exclusion 6)	–	–	–	0.0962 µM	0.0331 µM	0.032 µM
CUCUUGAGUCAGGAUAUCGAGAGGCUAAUAAAACGAGAAGGGACUACAUGAGGAUCACCCAUGUGAUCGCAAAA [Geonge] (Eterna round: R97, puzzle: Exclusion 6)	–	0.433 µM	0.0617 µM	–	–	–
GAAAAGUGAGGAUAUGGUAAAAGAAAAAGAAAAAGAAAACUCCAGAAGGCACAUGAGGAUCACCCAUGUGAAAG [salish99_ex4_r3_006] (puzzle: Exclusion 4)	–	–	–	0.0157 µM	0.0162 µM	0.0158 µM
GUUAUCGCAGGAUAUUAGUACUUGUACAUGAGGAUCACCCAUGUUUAUUGGGACUAAGAAUAAGAAGGGCGAUGAA [JR_Ex5_Sub004] (Eterna round: R97, puzzle: Exclusion 5)	–	0.021 µM	0.0178 µM	–	–	–
GGAUCUACUGAGGAUAUUACAUCACCCGACUGAUAAGAAGGCAGAACAUGAGGAUCACCCAUGUGGGUAGCCAC [Polaris5] (Eterna round: R97, puzzle: Exclusion 6)	–	0.0563 µM	0.0357 µM	–	–	–
AAGCACCAUGUGAGGAUAUGCCACGGAACCGAUGGGCAGAAGGCACAUGAGGAUCACCCAUGUGACCGGUGGAU [Eternabot (Original) Solution 48] (Eterna round: R97, puzzle: Brourd's mod of Exclusion 4)	–	0.236 µM	0.0446 µM	–	–	–
ACCUACCAGCUAGGAUAUGCAGUACAGUAAAAUGUAGAAGGAGCACGAUCCAGACAUGAGGAUCACCCAUGUGGGCGGUAGGCA [Errage] (Eterna round: R96, puzzle: Exclusion NG 1)	0.014 µM	0.0144 µM	0.0169 µM	–	–	–

Reference: the supplement of paper PMC9170038
